Consider 17 sequences from a protein production outcome set (Wang et al. 2014).
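Note: failed if final PepcDB status was selected cloned or expressed and not failed if soluble or beyond.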

The series in a line: label from the status in PepcDB records.
On to “MTILENIRGPRDLKALSEAELGELSDEIRDFLVHAVARTGGHLGPNLGVVELTVALHRVFESPDDRILWDTGHQSYVHKLLTGRQDFSKLRSKGGLSGYPSREESAHDVIENSHASTVLGWADGLAKARQVQGERSHVVAVIGDGALTGGMAWEALNNIAAARDRPLIIVVNDNERSYAPTIGGLANHLATLRTTDGYERALAWGKDVLQRTPVVGHTVYEALHGAKKGFKDAFAPQGLFEDLGLKYLGPIDGHDIGAVESALRRAKRFHGPVLVHCLTEKGRGYEPALRDEEDHFHTVGVMDPLTCEPLGPAGGPSWTSVFGEEIVRIGEERADVVAITAAMLHPVGLAPFAERFPDRVWDVGIAEQHAAVSAAGLATGGLHPVVAVYATFLNRAFDQLLMDVALHRCGVTFVLDRAGVTGVDGASHNGMWDMSVLQVVPGLRIAAPRDADQLRTQLREAVAVDDAPTLLRFPKESVGPAVPAVDRIGGLDVLHTADRSEVLLVAVGVMAPVCLGAAELLEARGIGCTVVDPRWVKPVDPALAPLAARHRLVAVVEDNSRAAGVGSAVALALGDAEVDVPVRRFGIPEQFLAHAKRAEVLADIGLTPVDVAGRIAASLALAEPAGDRAGGPAVEQPGDGRMSGDGRIVMPAQGEN”, for which the protein production result is “failed”.

Consider “MASTVDSNFFSSVPALHSNLGLLSPDQIELAKILLENGQSHLFQQWPELGVDDKEKLAFFDQIARLNSSYPGGLAAYIKTAKELLADSKVGKNPYDGFSPSVPSGENLTFGTDNFIEMEKRGVVEARNAAFVLVAGGLGERLGYNGIKVALPRETTTGTCFLQHYIESILALQEASNKIDSDGSERDIPFIIMTSDDTHSRTLDLLELNSYFGMKPTQVHLLKQEKVACLDDNDARLALDPHNKYSIQTKPHGHGDVHSLLYSSGLLHKWLEAGLKWVLFFQDTNGLLFNAIPASLGVSATKQYHVNSLAVPRKAKEAIGGISKLTHVDGRSMVINVEYNQLDPLLRASGFPDGDVNCETGFSPFPGNINQLILELGPYKDELQKTGGAIKEFVNPKYKDSTKTAFKSSTRLECMMQDYPKTLPPTARVGFTVMDIWLAYAPVKNNPEDAAKVPKGNPYHSATSGEMAIYRANSLILQKAGVKVEEPVKQVLNGQEVEVWSRITWKPKWGMIFSDIKKKVSGNCEVSQRSTMAIKGRNVFIKDLSLDGALIVDSIDDAEVKLGGLIKNNGWTMESVDYKDTSVPEEIRIRGFRFNKVEQLEKKLTQPGKFSVED”, for which the protein production entry is “failed”.

“MLNQSNELNAWDRDHFFHPSTHMGTHARGESPTRIMAGGEGVTVWDNNGRKSIDAFAGLYCVNVGYGRQKIADAIATQAKNLAYYHAYVGHGTEASITLAKMIIDRAPKGMSRVYFGLSGSDANETNIKLIWYYNNVLGRPEKKKIISRWRGYHGSGVMTGSLTGLDLFHNAFDLPRAPVLHTEAPYYFRRTDRSMSEEQFSQHCADKLEEMILAEGPETIAAFIGEPILGTGGIVPPPAGYWEKIQAVLKKYDVLLVADEVVTGFGRLGTMFGSDHYGIKPDLITIAKGLTSAYAPLSGVIVADRVWQVLVQGSDKLGSLGHGWTYSAHPICVAAGVANLELIDEMDLVTNAGETGAYFRAELAKAVGGHKNVGEVRGDGMLAAVEFVADKDDRVFFDASQKIGPQVATALAASGVIGRAMPQGDILGFAPPLCLTREQADIVVSKTADAVKSVFANL”: the protein production entry is recorded as “not failed”.

With “MKSKTIRRWSFIHTWTSLICTVFLLMLALTGLPLIFHHEIDHLLGDSPELREMPADTPHLDLQQLVKAAEAHRPGEVMQYFGWDEDEPNGVMTIMARTAGTEPNASHTFMLDARTGEAVAMPSANGGLMMVMLRLHVDMFAGLPGKLLLAFMGILFVLAIISGTVLYLPFMRRLKFATVRQDKSSRLRWLDLHNLIGVVTLTWALVVGVTGVISACADLIIAAWRNDSLSAMVAPYRDAPPLTSLAPASRLLDIAREAAPGMQPDFIAFPGTRFSSEHHYAVFLKGSSHLTSHLLTPVLIDASSLQVTAVAGRPWYMDAMGMSQPLHFGDYGGMPMKVLWAAMDMLTIIVLGSGLYLWLARRRAGKSMPQVRP”, the protein production result was “failed”.

As for “SGGDVNEAYRVETDTDTFFLLVQRGRKESFYAAEIAGLNEFERAGITAPRVIASGEVNGDVYLVMTYLEEGASGSQRQLGQLVAQLHSQQQEEGKFGFSLPYEGGDISFDNHWQDDWRTIFVDKRLDHLKEELLNRGLWDANDIKVYDKVRSQIVEELEKHQSKPSLLHGDLWGGNYMFLKDGRPALFDPAPLYGDREFDIGITTVFGGFTSEFYDAYNKHYPLAKGASYRLEFYRLYLLMV”, the protein production result was “failed”.

Consider “MQRYETTSVQNITQQYVHWFRHSAPYINAHRNKTLVLMFGGEAVQHPNFQHIIHDIALLHSLGIRLILVHGARPQINQNLQEKQIETPIHLHRRVTTRESLACVMNAVGSIRLEIEALLSMGLANSPMFGARIDVVSGNFVTAKPYGIRDGVDFQLTGEVRAIDTDAIQRHLDNHNIVVLGPTGYSTTGEVFNLLAEEVATKTATALHADKLIFLGKKQGLLSDQGKLLRELTPQQLEPYIKHFQQLDHEMALHLQGAQTASLSGVHRVHLISYAYDGALIEELFTRDGIGTMITDAHYEDVRTATIQDVGGLINLLRPLEEEGILVYRSRERLESEISQFAVIERDGMILACAALYPIPTAKNEIRSAEIACVAVDPAYRKSNRGSQILHFLEEKARQEGILQLFVLTTRTAHWFLEHGFQTASVDDLPSARQELYNYQRNSLVFKKILM”, for which the protein production result was “failed”.

Turning to “MESITVTELKEKILDANPVNIVDVRTDQETAMGIIPGAETIPMNSIPDNLNYFNDNETYYIICKAGGRSAQVVQYLEQNGVNAVNVEGGMDEFGDEGLDIKSILEHHHHHH”, the protein production entry is given as “not failed”.

For the sequence “MNLLNLFTYVIPIAICIILPIFIIVTHFQIKSLNKAVTSFNKGDRSNALEILSKLVKSPIKNVKANAYITRERIYFYSRDFELSLRDLLQAIKLRPKTINDVYSFALSYHILGEPERALKYFLRAVELQPNVGISYENLAWFYYLTGKYDKAIENFEKAISMGSTNSVYRSLGITYAKIGDYKKSEEYLKKALDAEPEKPSTHIYFSYLKRKTNDIKLAKEYALKAIELNKNNFDGYKNLAEVNLAEDDYDGFYKNLEIFLEKINFVTNGEDFNDEVYDKVKDNEKFKELIAKTKVIKFKDLGIEIDDKKILNGKFLV”, the protein production entry is given as “failed”.

On to “DSFKTKSGKELTITFIKHGSLMLTYDNHSIQVDPVSEYADYTTFPKADIILITHEHGDHLDPKAIQAVEKSDTEIIANENSQKKLGKGKVLKNGDTDTSISYMKIEAVPAYNTTPGRDKYHPRHRDNGYILTFDGLRVYIAGDTEDIPEMKDLKDIDIAFLPVNQPYTMTVSQAAKAARMFSPKILYPYHYGDTKIGELKDALKDSGIDVRIRELQ”, for which the protein production entry is listed as “not failed”.

As for “MVQIAGTPVPLSAKSRGPNALSSLLAALFLLLSQPASGAEAKQCIDNAELDAADKAFNSLHYAKADSLYQSMLQTGDQSSTLYWKLARLNISIAEAIDPSERKKRIPFYNKAVEYARKSVQLDENNASAHTWLAAALALKADKIGAKEKLNRAAEIKRELDKALALNPNDDVAWSMLGSYNFEASKIGWFSRFMGSTFVGKMPKGSREEAEKDFKKAISLNPRVIRHYHELALLYLEEDRKQEALNTLRIAETRPVLMKSDVRRLKEIKKLIAKLSKEIEEK”, the protein production result is “failed”.

With “NENNTVVAETKTSTASETSEPKQVISSKQQLASLYLQAKQSLFKQRALSATMYGLSQKDIGQVISSDMEFYSPENEKQLRAELLSISNTIAGIKLDDADITTKNNQQVMAGLTRYFAGEPNFNIGYIDTWMGLSPFIVNQINGPLIDIPRVMQNDQPITTEKEALDYIVRLGQFDKLAATIIEKQTADAAQNWLPSKVTLQGAIKYLKGFTSGSAEQHPFVNVFREKIEKVDSLTTEQKQSLITQVIAKVSQVVYPAYQSVEKASEQLLSEARSESGIWAQPKGSVYYQDAIKQLGDSELSPTQIHQIGLDEVARISGVMNEILLAQGYTKGTVGERMVALNEEPRFLYEDSIAGREELLSDINGYITEVTAKMAPVFRTTPSYQVEVKSFPVEVQDGAPGGQYTSPAVDGSKPGIYWINLRDMKANPKFGLKTLTYHEANPGHHWQIALNLDQAELPFLRRIAPYNAYTEGWALYSEQVAYELGMYENDPFGDLGRLQAELFRAVRLVVDTGLHDKRWTREQAISYMSEQTGTAESDVVAEIERYMAWPGQALGYKLGMLKILSLREQAKARLGDKFDLAEFHDVVLLNGAVPMAVLSRNVNHWLDNK”, the protein production result was “not failed”.

Regarding “MQELSPAELGEQVQDDDGPLVLDIRHEEDFQEWHIPGSRNVDVYDELTDDPEQAIEPLDDLPSDEQIVTVCAAGVVSQTATAVLRELGYDAVTLTDGMNGWSRVHRHAELPVDVDGTLVQVARPGKGCLSHVLVSDGEAAVFDPSHYLNEYDTVLDEYDAELVGVFDTHAHADHVSGAADLADRHDVPYYLHQKDALAVDATPLEDGQTVTVGRLDIEVIHTPGHSEGSVSFDVEGAALLTGDTLFHDSVGRVELGVEAGIEDADVEGNAATLYESLQRLLDRPDDALVLPAHDPGSPEPPVAATLAEVRERNDDLGRDREAFVEELASDIPDHPPNFERVKRTNVGQESVPEEELAELELGPNNCAAE”, the protein production entry is “failed”.

For the sequence “MTTTLTILTPTYNRAYILPKLYASLVEQTNKHFDWMVVDDGSTDNTEQLISEFIADGKINIVYIKQKNGGKHRALNTGAQSINSDYIFIVDSDDYLTNDAIDIILENSHYLKEKNLMGMTLLRGYAPDKVIGEKYPEDFMIKNFNQVRYNMGIKGDKAEVVSTKIFRETPFPEIPGERFMSEGVAWKQLAHKGDSLFINKIVYITEYLEDGLTHSGRLLLIKNPLGAMLNAKLAMTKEFSFKIREKNSLLYIAYGFFAKKKVREIITESGQRKLVRVNLLFGWMI”, the protein production entry is on record as “failed”.

“YTISEVVAFTGLTAHTLRWYERIGLMPHIDRSHTGQRRYSNRDLDWLAFVGKLRLTGMPVADMVRYAEMVREGDGTYTQRYEILESTRRDVLARIAELQDTLAVLDHKISFYADAGRALTSERSR”: the protein production entry was “failed”.

Take “MDFDLRWLFIAASLGLCAWAGWQFVHRLARARLLGDVPTSRIRSAAQGFVELYGVLEEGPEGPLQAPLTGKPCLWWRYRIEVEEKRSGREKAWRTVDKGASESPFSLRDATDACLVDPRGAEVRPLTQQRWEAFREAPIDTLRLLESFGTLVGGERLYRYTEERLHAGEPLYALGEFRSSGGGRQGLDAERAQGAVIREWKGDFHGLLARFDSDGNGELDEREWNRVRLAARLEAEDRHRASSAAPTRHRLGKPGEAHPFILSSQGEDDLAVQLRRQAAGAALLCLGSALLAGWLFSRLF”: the protein production entry is “failed”.

In the case of “MADADLVMTGTVLTVDDARPTAEAIAVADGRVIAVGDRSEVAGLVGANTRVIDLGAGCVMPGFVEAHGHPLLEAVVLSDRFVDIRPVTMRDADDVVAAIRGEVARRGPAGAYLVGWDPLLQSGLGEPTLTWLDSLAPNGPLVIIHNSGHKAYFNSHAAWLNGLTRDTADPKGAKYGRDGNGELDGTAEEIGAILPLLAGVADPSNFGAMLRAECARLNRAGLTTCSEMAFDPGYRPMVEAVRAELTVRLCTYEISNARMCTDATPGQGDDMLRQVGIKIWVDGSPWVGNIDLTFPYLDTPATRAIGVPPGSRGCANYTREQLAEIVGAYFPRGWQIACHVHGDGGVDTILDVYEEALRRNPRDDHRLRLEHVGAIRPDQLRRAAELGVTCSIFVDQIHYWGDVIVDDLFGAQRGSRWMPAGSAVAAGMRISLHNDPPVTPEEPLRNISVAATRVAPSGRVLAPEERLTVEQAIRAQTIDAAWQLFAEDAIGSLQVGKYADMVVLSADPRTVPPEQIADLAVRATFLAGRQVYRRLEHHHHHH”, the protein production result was “failed”.

On to “MTHTVIVPGVGGSEQHHWQSWLQRQLSSCSRVEQNDWNLPVLSDWVSHLISHVQQLEQPVQIVAHSFGCLTTLAALEQHPQLINQVKHITLVAPANPERFGEAGFARDSQTDYRAYFHQLKPSIKTQLIISENDPWLDFEEALQLAKSWQVRATNLGKVGHINVASGFGPFPEIFDYMLP”, for which the protein production entry is on record as “failed”.
